This note sets out measurements from patent publication US20080305097.

In this data set the test system is stromal cell-derived factor 1 (SDF-1).

On to cathepsin K (CTK), for which the “SDF-1 cleavage by CTK (SDS-PAGE and western blot, time course of minutes)” value was “The results obtained show fast and site specific SDF-1 cleavage by CTK”.
